Measured values from publication PMC6224480, “Insights into Kinesin-1 Activation from the Crystal Structure of KLC2 Bound to JIP3” (Structure(London, England:1993), 2018).

Tests used:
CD spectroscopy = format: physicochemical; conditions: 20°C, 20 mM potassium phosphate pH 7.5, 0.5 mM DTT, SELCON3, 0.29, 0.14 and 0.086 mg/ml
Protocol: (§1) All CD spectra were recorded on a Chirascan CD spectrometer (Applied Photophysics) in quartz cuvettes with a 0.1 cm path length. Data were recorded at 20°C between 260 - 180 nm in 1 nm increments and a 2 nm bandwidth over an average of two scans. The KLC2^TPR-myc and Trp-JIP3^LZ proteins were dialysed extensively into 20 mM potassium phosphate pH 7.5, 0.5 mM DTT. Spectra were collected from KLC2^TPR-myc samples at concentrations of 0.29, 0.14 and 0.086 mg/ml. Trp-JIP3^LZ spectra were collected at 0.15, 0.074 and 0.044 mg/ml. One spectrum was recorded for each sample at each concentration and background-corrected by subtraction of a buffer-only spectrum. Corrected spectra were converted to units of mean residue ellipticity and deconvolved using the Dichroweb server ([Whitmore and Wallace, 2008]). KLC2^TPR-myc and Trp-JIP3^LZ spectra were analysed using the SELCON3 and CONTIN algorithms, respectively, using reference dataset set 4 ([Sreerama et al., 1999], [van Stokkum et al., 1990]). For each protein, the mean percentage of each secondary structure type, and the corresponding standard deviation, was calculated from the values obtained from the three concentrations. The secondary structure content for KLC2^TPR-myc and Trp-JIP3^LZ were calculated using the KLC2^TPR:JIP3^LZ crystal structure using the STRIDE server (http://webclu.bio.wzw.tum.de/cgi-bin/stride/stridecgi.py) ([Frishman and Argos, 1995]).

SEC-MALLS = format: physicochemical; conditions: 25 mM HEPES pH 7.5, 0.1 M NaCl, 1 mM TCEP
Protocol: Fifty microliters of JIP3^LZ was injected onto a WTC-030S5 column, pre-equilibrated with buffer containing 25 mM HEPES pH 7.5, 0.1 M NaCl and 1 mM TCEP at a flow rate of 1 ml/min. Data were recorded using a DAWN 8+ multi-angle light scattering (LS) detector, an Optilab T-rEX differential refractive index (dRI) detector and UV absorbance (UV) detector (Wyatt Technology) and analyzed with the Astra 6.2 software package provided by the manufacturer (Wyatt Technology).

[1] = Secondary structure content calculated from the KLC2^TPR:JIP3^LZ crystal structure (STRIDE)
Protocol: as §1, with “Corrected spectra were converted to units of mean residue ellipticity and deconvolved using the Dichroweb server ([Whitmore and Wallace, 2008]).” left out

KLC2^TPR = test: ITC of KLC2^TPR binding to GST3C-JIP3^LZ, two-stage sequential model; parameters: species or system murine; conditions: for K, macroscopic association constant / ΔH / –TΔS: ITC, 25°C, 0.5 M NaCl, pH 7.5, globally fitted over four experiments; for K, macroscopic association constant: 25 mM HEPES, 5 mM MgCl2, 1 mM TCEP
Protocol: For ITC studies with the KLC2^TPR and GST-JIP3^LZ, the high KLC2^TPR concentrations required to use this protein as titrant necessitated a higher salt concentration than that used for crystallographic studies. The KLC2^TPR was prepared as above for crystallographic studies but the final size exclusion chromatography step was performed in 500 mM NaCl, 25 mM HEPES, 5mM MgCl2, 1 mM TCEP (final pH 7.5). The GST-JIP3^LZ protein was bound to glutathione sepharose resin in batch as described above for the JIP3^LZ. The GST-JIP3^LZ protein was eluted in 0.25 M NaCl, 50 mM TRIS.HCl, 1 mM TCEP, 25 mM glutathione; final pH 7.5, and purified by size exclusion chromatography on a Superdex 200 16/600 column (GE Healthcare) equilibrated in 500 mM NaCl, 25 mM HEPES, 5mM MgCl2 and 1 mM TCEP (final pH 7.5).
To study the binding of the KLC2^TPR to GST3C-JIP3^LZ, the proteins were prepared by size exclusion chromatography in 0.5 M NaCl, 25 mM HEPES, 5 mM MgCl2, 1 mM TCEP, final pH 7.5. ITC measurements were performed on a MicroCal iTC200 calorimeter (Malvern) at 25°C, with a differential power of 5.0 μcal/s and stirring at 750 rpm. Experiments consisted of an initial sacrificial 0.5 μl injection, followed 120 s later by 19 injections of 2 μl spread over 4 s, spaced 120 s apart. Thermograms were integrated and corrected for heats of dilution using NITPIC (http://biophysics.swmed.edu/MBR/software.html). The resulting isotherms were analysed in SEDPHAT (http://www.analyticalultracentrifugation.com/sedphat/) ([Keller et al., 2012], [Zhao et al., 2015]). The isotherms from these experiments were globally fitted with the A + B + B → AB + B → ABB model. […] Figures were prepared using GUSSI (http://biophysics.swmed.edu/MBR/software.html).

[2] = stage A + B + B → BA + B (first KLC2^TPR)
[3] = stage BA + B → BAB (second KLC2^TPR)

B1: KLC2^TPR-myc: murine KLC2 residues 191-480 with … fused to the C-terminus (protein)
chain: GYEIPARLRTLHNLVIQYASQGRYEVAVPLCKQALEDLEKTSGHDHPDVATMLNILALVYRDQNKYKDAAHLLNDALAIREKTLGKDHPAVAATLNNLAVLYGKRGKYKEAEPLCKRALEIREKVLGKFHPDVAKQLSNLALLCQNQGKAEEVEYYYRRALEIYATRLGPDDPNVAKTKNNLASCYLKQGKYQDAETLYKEILTRAHEKEFGSVNGENKPIWMHAEEREESKDKRRDRRPMEYGSWYKACKVDSPTVNTTLRTLGALYRPEGKLEAAHTLEDCASRSRKQ
modifications: left off: His6-SUMO, N-terminal, cleaved | myc (…), C-terminal, kept
secondary structure content by CD versus crystal structure (CD spectroscopy): very similar to that calculated from the KLC2^TPR:JIP3^LZ crystal structure

B2: JIP3^LZ: JIP3 leucine zipper domain, residues 417-487 of murine JIP3 isoform A (protein)
chain: WMGKEVGNLLLENSQLLETKNALNVVKNDLIAKVDQLSGEQEVLKGELEAAKQAKVKLENRIKELEEELKRV
modifications: left off: GST, N-terminal, cleaved
notes: JIP3 leucine zipper domain, residues 417-487 of murine JIP3 isoform A
oligomeric state in solution (SEC-MALLS): stable dimer | α-helical content calculated from crystal structure [1]: 77%

B3: GST-JIP3^LZ: GST and 3C site fused to murine JIP3 isoform A leucine zipper, residues 417-487 (protein, UniProt Q9ESN9 417-487, looked up, fragment)
chain: MGKEVGNLLLENSQLLETKNALNVVKNDLIAKVDQLSGEQEVLKGELEAAKQAKVKLENRIKELEEELKRV
modifications: isoform A N-terminal GST tag, 3C site
thermodynamic driving force (KLC2^TPR; binding of the first KLC2^TPR): enthalpically driven | thermodynamic driving force (KLC2^TPR; binding of the second KLC2^TPR): entropically driven | K, macroscopic association constant (KLC2^TPR; [2]): 0.1317 µM⁻¹ | ΔH (KLC2^TPR; [2]): -78.475 kJ/mol | –TΔS (KLC2^TPR; [2]): 49.254 kJ/mol | K, macroscopic association constant (KLC2^TPR; [3]): 0.1315 µM⁻¹ | ΔH (KLC2^TPR; [3]): 3.98 kJ/mol | –TΔS (KLC2^TPR; [3]): -33.2 kJ/mol | cooperativity of binding of two KLC2^TPR subunits (KLC2^TPR; suggested by very similar macroscopic association constants): positive cooperativity
